The nature of this series: label from the status in PepcDB records.
In the case of “MTIKQTDNINDDDLVYSNATDLPVGVKKSPKMSPTARVGLLVFGVIAAVGWGAIAFSRGETINSVWLVLAAVGSYIIAFSFYARLIEYKVVKPKDQRATPAEYVNDGKDYVPTDRRVLFGHHFAAIAGAGPLVGPVMAAQMGYLPGTLWIILGVIFAGAVQDYLVLWVSTRRRGRSLGQMVRDEMGTVGGAAGILATISIMIIIIAVLALIVVNALADSPWGVFSITMTIPIALFMGVYLRYLRPGRVTEVSIIGVALLLLAIVAGGWVADTSWGVEWFTWSKTTLALALIGYGIMAAILPVWLLLAPRDYLSTFMKIGVIGLLAVGILFARPEVQMPSVTSFALEGNGPVFSGSLFPFLFITIACGALSGFHALISSGTTPKLVEKESQMRMLGYGGMLMESFVAMMALITAVILDRHLYFSMNAPLALTGGDPATAAEWVNSIGLTGADITPEQLSEAAESVGESTVISRTGGAPTLAFGMSEILSGFIGGAGMKAFWYHFAIMFEALFILTTVDAGTRVARFMMTDTLGNVPGLRRFKDPSWTVGNWISTVFVCALWGAILLMGVTDPLGGINVLFPLFGIANQLLAAIALALVLVVVVKKGLYKWAWIPAVPLAWDLIVTMTASWQKIFHSDPAIGYWAQNANFRDAKSQGLTEFGAAKSPEAIDAVIRNTMIQGILSILFAVLVLVVVGAAIAVCIKSIRARAAGTPLETTEEPDTESEFFAPTGFLASSRDKEVQAMWDERYPGGAPVSSGGH”, the protein production result is listed as “not failed”. Under “MTIKRVGILGAGKVGIVLAGLALKAGYEVRISGSGSVDKIDLTISTLVPGAIASENAEVVANSDIIILAIPLSRYKNIDPTLLKGKLVIDAMNYWWETDGIREEVLDPTLTSSEQVQNYFKDSTIVKTFNHMGYHNLQEEALPKGDPKRKALFVTGDNHAAVDEVTKFVDSMGFDQVVHYKLTDGIMTEPGSPLFGASLKYQELKQIIDNFDHTDFGRKISSTLNLEHHHHHH” stands “not failed”; under “MTIKVFSPKYPTELEEFYAERIADNPLGFIQRLDLLPSISGFVQKLREHGGEFFEMREGNKLIGICGLNPINQTEAELCKFHINSAYQSQGLGQKLYESVEKYAFIKGYTKISLHVSKSQIKACNLYQKLGFVHIKEEDCVVELGEETLIFPTLFMEKIL”, “failed”; under “MTINNDPMRDAIVDTAVELAAHTSWEAVRLYDIAARLAVSLDEIRLYFREKDELIDAWFDRADSRMLKEAESAGFLDLVASERIHHLIMIWLDALAVQRKVTRQMIMSKLEFGHIHIQIPAVMRVSRTVQWVREAAQRDATFMRRALEESTLTTIYLMTFFFWMRDESENSRHTRQFLKRHLTMAAWLGQKVYGKDPEKSTVPHKQQIPLQFD”, “not failed”.

Consider “MTIQQWLFSFKGRIGRRDFWIWIGLWFAGMLALFSLAGKNLLDIQTAAFCLVCLLWPTAAVMVKRLHDRGRSGAWALLMILAWMLLAGNWVMLPGMWQWVVGRFIPTLILVMMLIDLGAFVGVQGENKFGKATQDVKFKAEP”, for which the protein production result is “failed”.

Regarding “MTITILAFIIALFFAMNIGASGAAASMGIAYGAGAVRKRQAALWISGIGVFLGAMIGGGEVVKTIGSGIIPASILNVHIVVIILGSSAISLFIANIAGIPLSTSEVTVGSIVGVGVAFQAVFTDKLLVIVMYWLIIPIAAFFLAFLIGQLLKKTEAKLRWLKQQKWARLLTALVILTGFLEAFSAGMNNVANSVGPLVGAGLLSVGSGTFLGGLFVAIGAICLGSRVIETNGKKITEFSLLQGSCVSGLGASLVIGASLFGIPVPQTQITTCSIIGIGLSEKGRAIFRKSVILKLMKVWVVSPVFSLVISYSLVKIFLDFDLYSVAVVLCVFLATLGSISLMKHARQKQSDVRRNRDHVKSIVGGRGRKREPAAWRDF”, the protein production entry is reported as “failed”.

With “MTITTERGSQQYAYTDLPRLMGLMTGDEKHGPAATSTLDALWVLYDRVLRVAPERVDEPGRDRFLLSKGHGPMAYYAVLAAKGFLPVDWLPDFGSYDSPLGHHPDRVLVPGAEIGSGSLGHGLPIAVGTALGLRAQGLGEPRVWVLTGDAELDEGSNHEAIAYAGAAGLERLHTIVIDNSSATHALTGGIAARFEAAGWATTTVDGHDHEALHAAFTAPHEGRPLAVVARVRPKDA”, the protein production result is listed as “failed”. Regarding “MTIVVSRKFLAILARAIEGEVATDTIFTLLGLKVVVTLASLLPASVFLSVLMVLGRMYRDNEMTVFACAGVGPLRIYRSILLFAGPVCVLGAFLSLQAMPWSERLSQELISKDEKGADVRGIKAGRFNEFSQGDVVLYAEQLNTDKTMSRVFAQSRRGDETGIVIAESGHMEINDAGDHFVVLNNGRRYQGVPGRADFVLNEFQAYGVRINPPEGSQAALKREAADSLHLWMSGRPRELAELQRRLAVPLGTFTLTLLAVPIARTSPRGGVWGNLISAFLIYIIYENLQKISQGLLATGKLSVWTSYAGIYAVMLLATSVLLARNSGWRWVRDTALGRR”, the protein production entry was “failed”. As to “MTKAETSIGVFYVSEYGYSDRLAQAIINGITKTGVGVDVVDLGAAVDLQELRELVGRCTGLVIGMSPAASAASIQGALSTILGSVNEKQAVGIFETGGGDDEPIDPLLSKFRNLGLTTAFPAIRIKQTPTENTYKLCEEAGTDLGQWVTRDRSIKAMKSLGLEHHHHHH”, the protein production entry is listed as “not failed”.

Turning to “MTKAMTAHDYLPLIEKIRKRISSWTGRFLSYCGRLQLIKSVLMSITNFWSSAFRLPGNCMKEIERLCSAFLWSGPDLKTHNAKIAWSKVCLPMCEGGLGLRPLKEINTVCGLKLIWRLLASQTSLWGQWVQTYLIRRNNFWAIKASSYQGSWMWRKLLTLRDVARSFHKKEIHNGRNTSFWYDHWSSMGTLVDVLGARGCIDLGITTTTNMENVFTTRRSRKHRGDLLVRIEAEIEAAKTRHQPDIEDIDLWKPSTGYKKTFSTRETWKLIRMAEPVCEWAKGVWFPKPHQNLLSLLGWVCTIVFQQGTECKSGTAKLTLLAFSAKTLWKQEITYSSTVTTPIKFGKL”, the protein production entry is “failed”. Under “MTKHFLPRRTRKRRPEPLVKVRIDPPKLPKIRLLPRRAPRPRRPEPLVKVRIDPPRIRLPRIRRPRLTPFRERNPVVIGAVGLTFLALLTVAAFNADSLPLIGGGETYSAAFSEAGGLKPGDEVRIAGVKVGKVKDVDLDGDHVKVTFKIKGDPGFGTETGASIRVKTILGAKYLALRPKGPGQLKPGSEIPLKRTVPAYDVVQAFSDLTTTTEKVDTDQLAKALDTISTTFQDSPAEVRASIKGLSKISRTVASRDKALGELLDHANGVTGVLAEHSEDFTALVKDGGKLFKEISKRRKAIHKLLKSSAALGIELSGLVEDNDKEIGPALKGLNRVVQMLERNQSSLDRSVKLLAPYVRVFTNALGNGRWFDSYVQNLVAAPVVPRTGGAQ” stands “failed”.

Turning to “MTKHIPLQATSACAAVPPSAVLDSAHLGEIRGALGTIAADDRAPRRTLKARLQTLLAIAGPGLIVMVGDNDAGAFGTYTQAGQNYGTTLLWTLLLLIPVLYVNQEMVVRLGAVTGVGHARLIFARFGKFWGAFSVADLFLLNALTLVTEFIGISLALQYLGLSQFWGVIAAAVIITFAVSTGDFRRFERFALLLVAGSLLLIPVAVMVHPPLPQLAHDFFVPKMPAGAPLGEVMLLIIAIVGTTIAPWQLFFQQSYLIDKRITPRFIRYERWDLCVGIALVIIGAVAMIGFSAAAFAGRPEFGAYTDALGTAHGLEQAAGRLPAILFALALLDASIIGAAAVSLATAYAIGDVFAVAHSLHRKPSEAKGFYAVYAGLIAFAAALVVTPGMPLGLLTNAVQTLAGVLLPSATVFLLLLCNDKAVLGPWVNRRAGNLFTGAIVAVLVLLSVILTVSVLFPGVGETTILGILGGGVVGALLLSGAVALIARRGQGVRAEPPARSVVAPEEWRMPLLATLPPARLSAVSRTWLLVLRGYLVLAAGLVLYRIVELIAR”, the protein production entry is recorded as “failed”.

As for “MTKIIPVASGKGGVGKTSFVANVGYKLSSLGKTVILVDLDLGGSNLHTCLGVKNKGVGIGSFINKKSKSFSDLVCKTSYDKLYLIPGDALYTGTANLPFSIKKKIIESIQKDLIADFIFLDLGSGTSYNTIDFYLASYSGVIVTIPETPSILNAYSFLKNALYRLLYLGFPQKSPERDYIGNFFKDKIEGTNLGFKDLVVGIELISLSSSLKVKRMMNNFYPRVVLNRIETSEEIAMCENLINVVKNNINIPIEFIGFVPFAKSFREAINNRVPFIDFEKNSKLNKYFEFIAGNLIKSPIEGSPYIYDDIYDMIKDQSRFIRKLEHHHHHH”, the protein production entry is “not failed”. With “MTKIMIIGANGGIAKKLTQRLLAETDDELVLFLRRAERLAQYREQPRVTLIDGNVLDTDELATAMAPVDIVYSNVGGTDLAAQTKSILAAMARTQRQRLIFISALGAHHEVPGKFGAWNEQAIADFLPGFREAARLLSASELVYTEIRPAWLTDVAEIDYELTTGAEPFKGTEVSRASVADLVFKLMAHPENYQRVSLGVDEPGTAGDRPSWLLEHHHHHH”, the protein production entry is “failed”.

For “MTKQDIRVALTIVALVLGLGWAIGYGIGLMTRPASVVPENPPHDALKSPARKAPRSGAVSGDTRYPDYEELYVNDYADLLDPAAEDRLRDKLIALYGHNGVEMTVLTIDTMGTYGHGGAIEPFATGLFNNWGIGDAERNDGVLVLIVRFDRKMRIEIGAGYERAWDARMQRVIDAGFLPYFRRDEYQEGIEAGVDETIRELTGAYPGAWDMGTAQRGWSWLARAVDRIGEWVLSLLLVPLGGAALWVRRYLRNRTRPCAQCRTPMLRAGEEADDEHLDGGQRLEEYLKSVDYDVWHCPDCGHIDIHRYKSWFSGYGACPQCNYRTLSTTSTVLSAATKTREGRKRVEYDCAHCGHHDSEIRTIPKISDSNSGGSGRSSFGGGSSSGGGASGSW”, the protein production entry was “failed”. Take “MTKSHSQDQESTLLRLEHAQAILQRDAALAHIEHMRRSRSWRLTRPLRMLMQLLRHGVINDESEYPTHLPSLVQPLPASIPLEPDIVEDSTSGSAAQHFDLLCFANIDWSARFQRPQQLMTQFAIQGYRVFYIILSPLPAAERPYTAHPVAPGVFEITLRGHARQDYYATCITEGNLRANAEALQALVSDYRIKTAVSVVHLPYWTRLALHLRKAYGWPVQYDCMDEWQDFPNIGQPLLAQEQVLVEQADLVTVTASVLYDKWASTSRRCQLVRNGVDFDFFARCCTPNTLLEELQGPIIGFYGALAEWVDFELVAAIARQRPEWNLVLIGDVFVRDLAGLDRLPNVHLLGRKPYSQMPQYLYHFDVCIIPFRLYNVTHAVDPVKFYEFISAGKPVVAVPLLEMQIYEPYLYFADGPSAFVTQIERALGETDLQRWDQRLALARENDWRQRFEDTRDALVELFPKVSVIIVTYNNVQLTRGCIDSLLRNCAYPNLQLIIVDNASQDSTRNYLRYLARSEPNVSIVLNEQNLGFAAANNQGLRLAQGHYLVLLNNDTVVPKGWLAPLLRHLDDPEVGLVGPTTNAVGNEARVSIDYQDLDDMEDFADRRASQYRGRCFDIPMLAMFCVAMRREVLDQVGWLDEAFGIGMFEDDDYSRRVQAAGLRTVCAEDSYIHHYGQASFKALIASGEYQRLWDKNQAYFESKWGPWQPHRQARRRANADATKMKLTD”: the protein production result is “failed”. Under “MTKSQQKVSSIEKLSNQEGIISALAFDQRGALKRMMAEHQSETPTVEQIEQLKVLVSEELTQYASSILLDPEYGLPASDARNNDCGLLLAYEKTGYDVNAKGRLPDCLVEWSAKRLKEQGANAVKFLLYYDVDDTEEINIQKKAYIERIGSECVAEDIPFFLEVLTYDDNIPDNKSAEFAKVKPRKVNEAMKLFSEDCFNVDVLKVEVPVNMNFVEGFSEGEVVYTKEEAAQHFRDQDAATHLPYIYLSAGVSAELFQDTLKFAHDSGAQFNGVLCGRATWSGAVKVYIEEGEQAAREWLRTVGFKNIDDLNTVLKTTATSWKNK” stands “not failed”; under “MTKTKFEKVLLIVNPKAGQGDLHTNLTKIVPPLAAAFPDLHILHTKEQGDATKYCQEFASKVDLIIVFGGDGTVFECTNGLAPLEIRPTLAIIPGGTCNDFSRTLGVPQNIAEAAKLITKEHVKPVDVAKANGQHFLNFWGIGLVSEVSNNIDAEEKAKLGKIGYYLSTIRTVKNAETFPVKITYDGQVYEDEAVLVMVGNGEYLGGIPSFIPNVKCDDGTLDIFVVKSTGIQAFKDYIGKKLFEDSNENDIFHVKAKSIHIETEEEKEVDTDGESSLHTPCQIELLQGHFTMIYNPAVV”, “not failed”.

For the origin of these results see a protein production outcome set (Wang et al. 2014).
